Data from patent publication EP4552657A1, “RADIOPHARMACEUTICAL COMPLEXES AND COMBINATIONS” (priority 2023, dated 2025).

How the values were obtained:
[1] = target: GUCY2C (Homo sapiens, UniProt P25092); test: Immunoreactive fraction (IRF), binding to GUCY2C-coated beads
Experimental: Shortly after completion of the radiolabeling, the binding was assessed by measuring the fraction of radiolabeled antibody-chelator conjugate bound to relevant antigen coated magnetic beads (Thermo Fisher Scientific). In short, beads were placed in 2 mL Eppendorf tubes in 90 µL buffer (PBS/0.1% Tween 20/1% BSA). The radiolabeled compounds were diluted to 5 Bq/µL in buffer and 50 Bq were added to each bead-containing tube. The binding lasted for 60 min while shaking at 750 rpm at room temperature. After completion of the binding step, magnet (DynaMag-2) was used to separate the beads from […] supernatant. The radio activities in the supernatant and in the beads of each sample were measured using a high purity Germanium detector (Ortec). […] Total binding was defined as [(activity in beads […])/ (total activity)] × 100.
After completion of the radiolabeling, the binding Ac225-macropa-Indusatumab to GUCY2C-coated M270-carboxy Dynabeads was determined by IRF (as describe above).

[2] = test system: CHO cells stably expressing GUCY2C; details: 20 kBq/µg; 6 days; vs isotype control
Experimental: In vitro cytotoxicity of Ac-225-ACC was determined in cell lines expressing different levels of relevant target receptors. Cells were seeded at an appropriate cell density in relevant cell media. One day after seeding, the radiolabeled compounds at the specific activity of 2-20 kBq/µg and radioactive concentration of 50-100 kBq/ml were titrated in parallel with a radiolabeled isotype control. Cells were incubated for 5-6 days. Cell viability was determined by cell counting using Hoechst and PI staining and analyzed on Operetta CLS High Content Analysis System (Perkin Elmer) or by ATP measurements using CellTiterGlo (Promega).
The cells were seeded at an appropriate cell density in MEM Alpha + 10% FBS + 1x Glutamax + 0.5 mg/ml G418. […] Cells were treated for 6 days and subsequentially cell viability was determined using CellTiterGlo (Promega).

[3] = target: T1, human c-Met (Homo sapiens, UniProt P08581); test: Flow cytometry, cell surface binding on MKN-45 and HT-55 cells; details: compared to unconjugated Telisotuzumab
T1 construct: MKN-45 and HT-55 cells expressing human c-Met; endogenous in cells; host or cells: MKN-45, HT-55
Experimental: The in vitro binding properties of antibody-chelator conjugates were assessed in various relevant cell lines and compared to their corresponding unconjugated antibody. Briefly, samples were diluted in buffer (PBS/3% FBS) and added to relevant cell lines. After completion of the binding step (60 min at 4°C), the cells were washed and incubated with secondary antibody conjugated with phycoerythrin to detect antibodies containing a human IgG Fc region. After 60 min at 4°C, the cells were washed, and fluorescence on the cells was determined by flow cytometry using Guava EasyCyte 8HT (Luminex).
Cell surface binding of Telisotuzumab-macropa was compared to unconjugated Telisotuzumab and investigated by flow cytometry using MKN-45 and HT-55 cells expressing human c-Met (Figure 37).

T1 sequence (P08581 25-1390): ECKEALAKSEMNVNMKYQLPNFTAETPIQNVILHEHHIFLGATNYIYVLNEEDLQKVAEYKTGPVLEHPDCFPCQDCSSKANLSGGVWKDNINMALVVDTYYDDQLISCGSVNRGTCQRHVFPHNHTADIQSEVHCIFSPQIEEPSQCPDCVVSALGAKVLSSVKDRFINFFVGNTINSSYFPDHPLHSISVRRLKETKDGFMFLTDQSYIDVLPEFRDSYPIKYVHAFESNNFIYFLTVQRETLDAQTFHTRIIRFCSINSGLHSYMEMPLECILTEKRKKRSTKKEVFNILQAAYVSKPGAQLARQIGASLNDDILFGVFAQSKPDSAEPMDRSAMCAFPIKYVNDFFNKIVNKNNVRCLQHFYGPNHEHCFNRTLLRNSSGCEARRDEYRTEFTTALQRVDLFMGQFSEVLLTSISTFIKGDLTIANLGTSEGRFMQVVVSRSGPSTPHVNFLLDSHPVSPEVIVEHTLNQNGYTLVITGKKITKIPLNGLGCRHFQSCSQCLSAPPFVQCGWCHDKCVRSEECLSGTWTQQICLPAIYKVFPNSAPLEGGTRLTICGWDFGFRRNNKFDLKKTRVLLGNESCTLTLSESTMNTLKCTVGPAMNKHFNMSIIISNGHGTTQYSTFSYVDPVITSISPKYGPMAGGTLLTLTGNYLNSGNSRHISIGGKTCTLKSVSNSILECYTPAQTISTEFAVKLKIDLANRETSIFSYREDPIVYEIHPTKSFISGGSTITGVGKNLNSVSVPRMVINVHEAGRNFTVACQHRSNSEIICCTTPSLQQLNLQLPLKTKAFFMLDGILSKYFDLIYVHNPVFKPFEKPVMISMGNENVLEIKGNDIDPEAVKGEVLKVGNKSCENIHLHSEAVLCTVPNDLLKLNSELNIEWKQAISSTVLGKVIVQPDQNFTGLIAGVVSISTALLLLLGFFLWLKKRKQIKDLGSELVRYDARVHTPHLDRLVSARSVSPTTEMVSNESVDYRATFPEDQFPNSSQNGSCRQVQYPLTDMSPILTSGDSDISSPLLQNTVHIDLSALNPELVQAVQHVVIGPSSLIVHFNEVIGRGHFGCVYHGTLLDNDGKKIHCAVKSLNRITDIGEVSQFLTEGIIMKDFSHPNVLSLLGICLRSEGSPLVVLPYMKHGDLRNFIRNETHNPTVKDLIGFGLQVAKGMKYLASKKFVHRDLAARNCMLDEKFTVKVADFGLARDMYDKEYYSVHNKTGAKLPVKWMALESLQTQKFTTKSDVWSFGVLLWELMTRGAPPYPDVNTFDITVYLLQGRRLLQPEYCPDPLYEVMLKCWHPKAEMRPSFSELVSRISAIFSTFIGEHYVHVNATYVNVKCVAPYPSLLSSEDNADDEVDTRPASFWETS

With “Ac-225-macropa-Indusatumab: Ac-225 macropa complex bound to the anti-GUCY2C monoclonal antibody Indusatumab” as the substance, how does the “amount of GUCY2C-coated beads at which maximal binding was achieved” value [1] read?
The value was 7.5 µg.

What about the cytotoxicity [2] of the same substance?
Its cytotoxicity is “strong and specific cytotoxicity”.

How did the EC50 [3] turn out when Telisotuzumab-macropa was run?
Its EC50 is “comparable EC50 in both cell lines as unconjugated Telisotuzumab”.
